Starred links: 1 amine or outer side, 2 acyl side, 3 side chain; linkers in the order of their positions; H or OH if unused. Non-standard residues stand in square brackets, D forms with d. Trp4Az = (2S)-2-amino-3-(1H-pyrrolo[3,2-b]pyridin-3-yl)propanoic acid, O=C([C@H](Cc1c[nH]c2cccnc12)N[*:1])[*:2]; dPro(4R-(4-pyridylmethyl)) = O=C(O)[C@H]1C[C@@H](Cc2ccncc2)CN1; Trp(βS-Me,4-F) = C[C@@H](c1c[nH]c2cccc(F)c12)[C@H](N)C(=O)O; Bip(4'-COOH) = N[C@@H](Cc1ccc(-c2ccc(C(=O)O)cc2)cc1)C(=O)O; Ala(1-bicyclo(1.1.1)pentyl) = N[C@@H](CC12CC(C1)C2)C(=O)O; dPro(4R-Bzl(4-F)) = O=C(O)[C@H]1C[C@@H](Cc2ccc(F)cc2)CN1; Ala(morpholin-4-yl) = N[C@@H](CN1CCOCC1)C(=O)O; Ala(pyrimidin-5-yl) = N[C@@H](Cc1cncnc1)C(=O)O; Phe(4-COOH) = N[C@@H](Cc1ccc(C(=O)O)cc1)C(=O)O; Pro(cis-4-F) = O=C(O)[C@@H]1C[C@H](F)CN1; cisHyp = O=C(O)[C@@H]1C[C@H](O)CN1; d(αMeD) = C[C@@](N)(CC(=O)O)C(=O)O; 4Pal = N[C@@H](Cc1ccncc1)C(=O)O; Cba = N[C@@H](CC1CCC1)C(=O)O; αMeK = C[C@](N)(CCCCN)C(=O)O; Dab = NCC[C@H](N)C(=O)O; Aib = CC(C)(N)C(=O)O
Molecular target: Recombinant human IL-1β (BioLegend 579404) (human, UniProt P01584 117-269)
Test: cell-based or functional assay

Binder | MRC5 IC50 [nM]
cyclo([Bip(4'-COOH)][Ala(1-bicyclo(1.1.1)pentyl)][Phe(4-COOH)]G[Pro(cis-4-F)][Trp(βS-Me,4-F)][Aib]SW[d(αMeD)][Ala(pyrimidin-5-yl)]Q[Dab]G[dPro(4R-(4-pyridylmethyl))]) (ring closure inferred) [SEQ ID NO: 155] | 0.011
cyclo([Bip(4'-COOH)][4Pal][Phe(4-COOH)]G[Pro(cis-4-F)][Trp(βS-Me,4-F)][Aib]S[Trp4Az][Aib][Ala(pyrimidin-5-yl)]Q[Dab]G[dPro(4R-(4-pyridylmethyl))]) (ring closure inferred) [SEQ ID NO: 162] | 0.05
cyclo([Bip(4'-COOH)][Ala(1-bicyclo(1.1.1)pentyl)][Phe(4-COOH)]G[Pro(cis-4-F)][Trp(βS-Me,4-F)][Aib]EW[αMeK][Ala(morpholin-4-yl)]Q[Dab]G[dPro(4R-Bzl(4-F))]) (ring closure inferred) [SEQ ID NO: 165] | 0.022
cyclo([Bip(4'-COOH)][4Pal][Phe(4-COOH)]G[cisHyp][Trp(βS-Me,4-F)][Aib]SW[d(αMeD)][Ala(pyrimidin-5-yl)]Q[Dab]G[dPro(4R-(4-pyridylmethyl))]) (ring closure inferred) [SEQ ID NO: 159] | 0.013
cyclo([Bip(4'-COOH)][Ala(1-bicyclo(1.1.1)pentyl)][Phe(4-COOH)]G[Pro(cis-4-F)][Trp(βS-Me,4-F)][Aib]SW[d(αMeD)][Ala(pyrimidin-5-yl)]QSG[dPro(4R-(4-pyridylmethyl))]) (ring closure inferred) [SEQ ID NO: 158] | 0.013
cyclo([Bip(4'-COOH)][Ala(1-bicyclo(1.1.1)pentyl)][Phe(4-COOH)]G[cisHyp][Trp(βS-Me,4-F)][Aib]SW[d(αMeD)][Ala(pyrimidin-5-yl)]Q[Dab]G[dPro(4R-(4-pyridylmethyl))]) (ring closure inferred) [SEQ ID NO: 160] | 0.023
cyclo([Bip(4'-COOH)][4Pal][Phe(4-COOH)]G[cisHyp][Trp(βS-Me,4-F)][Aib]SW[d(αMeD)][Ala(pyrimidin-5-yl)]QSG[dPro(4R-(4-pyridylmethyl))]) (ring closure inferred) [SEQ ID NO: 161] | 0.019
cyclo([Bip(4'-COOH)][4Pal][Phe(4-COOH)]G[Pro(cis-4-F)][Trp(βS-Me,4-F)][Aib]SW[d(αMeD)][Ala(pyrimidin-5-yl)]QSG[dPro(4R-(4-pyridylmethyl))]) (ring closure inferred) [SEQ ID NO: 156] | 0.015
cyclo([Bip(4'-COOH)][Ala(1-bicyclo(1.1.1)pentyl)][Phe(4-COOH)]G[cisHyp][Trp(βS-Me,4-F)][Aib]SW[d(αMeD)][Ala(pyrimidin-5-yl)]QSG[dPro(4R-(4-pyridylmethyl))]) (ring closure inferred) [SEQ ID NO: 157] | 0.038
cyclo([Bip(4'-COOH)][Cba][Phe(4-COOH)]G[cisHyp][Trp(βS-Me,4-F)][Aib]SW[d(αMeD)][Ala(pyrimidin-5-yl)]Q[Dab]G[dPro(4R-(4-pyridylmethyl))]) (ring closure inferred) [SEQ ID NO: 164] | 0.039
cyclo([Bip(4'-COOH)][Cba][Phe(4-COOH)]G[Pro(cis-4-F)][Trp(βS-Me,4-F)][Aib]SW[Aib][Ala(pyrimidin-5-yl)]Q[Dab]G[dPro(4R-(4-pyridylmethyl))]) (ring closure inferred) [SEQ ID NO: 163] | 0.03
